{"source": "patent US20030119038A1", "about": "“NARC1, novel subtilase-like homologs” (priority 1999, published 2003)", "molecules": {"B1": {"name": "H225W: Full-length NARC1 point mutant; mutation of the active site histidine (protein)", "chain": "MGIRCSTWLRWPLSPQLLLLLLLCPTGSRAQDEDGDYEELMLALPSQEDSLVDEASHVATATFRRCSKEAWRLPGTYVVVLMEETQRLQVEQTAHRLQTWAARRGYVIKVLHVFYDLFPGFLVKMSSDLLGLALKLPHVEYIEEDSLVFAQSIPWNLERIIPAWQQTEEDSSPDGSSQVEVYLLDTSIQSGHREIEGRVTITDFNSVPEEDGTRFHRQASKCDSWGTHLAGVVSGRDAGVAKGTSLHSLRVLNCQGKGTVSGTLIGLEFIRKSQLIQPSGPLVVLLPLAGGYSRILNTACQRLARTGVVLVAAAGNFRDDACLYSPASAPEVITVGATNAQDQPVTLGTLGTNFGRCVDLFAPGKDIIGASSDCSTCYMSQSGTSQAAAHVAGIVAMMLNRDPALTLAELRQRLILFSTKDVINMAWFPEDQRVLTPNRVATLPPSTQETGGQLLCRTVWSAHSGPTRTATATARCAPEEELLSCSSFSRSGRRRGDRIEAIGGQQVCKALNAFGGEGVYAVARCCLLPRVNCSIHNTPAARAGPQTPVHCHQKDHVLTGCSFHWEVENLRAQQQPLLRSRHQPGQCVGHQEASVHASCCHAPGLECKIKEHGIAGPAEQVTVACEAGWTLTGCNVLPGASLPLGAYSVDNVCVARIRDAGRADRTSEEATVAAAICCRSRPSAKASWVHQ", "modifications": "mutant of rat sequence mutating amino acid His225Trp of SEQ ID NO9"}, "B2": {"name": "Deletion of residues L147-M425, inclusive: NARC1 subtilase deletion, large; removes entire subtilase domain (protein)", "chain": "MGIRCSTWLRWPLSPQLLLLLLLCPTGSRAQDEDGDYEELMLALPSQEDSLVDEASHVATATFRRCSKEAWRLPGTYVVVLMEETQRLQVEQTAHRLQTWAARRGYVIKVLHVFYDLFPGFLVKMSSDLLGLALKLPHVEYIEEDSAWFPEDQRVLTPNRVATLPPSTQETGGQLLCRTVWSAHSGPTRTATATARCAPEEELLSCSSFSRSGRRRGDRIEAIGGQQVCKALNAFGGEGVYAVARCCLLPRVNCSIHNTPAARAGPQTPVHCHQKDHVLTGCSFHWEVENLRAQQQPLLRSRHQPGQCVGHQEASVHASCCHAPGLECKIKEHGIAGPAEQVTVACEAGWTLTGCNVLPGASLPLGAYSVDNVCVARIRDAGRADRTSEEATVAAAICCRSRPSAKASWVHQ", "modifications": "mutant of rat sequence deletion mutant removes amino acids Leu147-Met425, inclusive, of SEQ ID NO9", "notes": "NARC1 subtilase deletion, large; removes entire subtilase domain"}, "B3": {"name": "C-terminal truncation M425: NARC1 terminating at residue M425; all of the cysteine-rich region removed (protein)", "chain": "MGIRCSTWLRWPLSPQLLLLLLLCPTGSRAQDEDGDYEELMLALPSQEDSLVDEASHVATATFRRCSKEAWRLPGTYVVVLMEETQRLQVEQTAHRLQTWAARRGYVIKVLHVFYDLFPGFLVKMSSDLLGLALKLPHVEYIEEDSLVFAQSIPWNLERIIPAWQQTEEDSSPDGSSQVEVYLLDTSIQSGHREIEGRVTITDFNSVPEEDGTRFHRQASKCDSHGTHLAGVVSGRDAGVAKGTSLHSLRVLNCQGKGTVSGTLIGLEFIRKSQLIQPSGPLVVLLPLAGGYSRILNTACQRLARTGVVLVAAAGNFRDDACLYSPASAPEVITVGATNAQDQPVTLGTLGTNFGRCVDLFAPGKDIIGASSDCSTCYMSQSGTSQAAAHVAGIVAMMLNRDPALTLAELRQRLILFSTKDVINM", "modifications": "mutant of rat sequence truncated sequence ends at amino acid Met 425", "notes": "NARC1 terminating at residue M425; all of the cysteine-rich region removed"}, "B4": {"name": "Deletion of residues Q218-A392, inclusive: NARC1 subtilase deletion, small; removes much of the subtilase domain including active site residues (protein)", "chain": "MGIRCSTWLRWPLSPQLLLLLLLCPTGSRAQDEDGDYEELMLALPSQEDSLVDEASHVATATFRRCSKEAWRLPGTYVVVLMEETQRLQVEQTAHRLQTWAARRGYVIKVLHVFYDLFPGFLVKMSSDLLGLALKLPHVEYIEEDSLVFAQSIPWNLERIIPAWQQTEEDSSPDGSSQVEVYLLDTSIQSGHREIEGRVTITDFNSVPEEDGTRFHRGIVAMMLNRDPALTLAELRQRLILFSTKDVINMAWFPEDQRVLTPNRVATLPPSTQETGGQLLCRTVWSAHSGPTRTATATARCAPEEELLSCSSFSRSGRRRGDRIEAIGGQQVCKALNAFGGEGVYAVARCCLLPRVNCSIHNTPAARAGPQTPVHCHQKDHVLTGCSFHWEVENLRAQQQPLLRSRHQPGQCVGHQEASVHASCCHAPGLECKIKEHGIAGPAEQVTVACEAGWTLTGCNVLPGASLPLGAYSVDNVCVARIRDAGRADRTSEEATVAAAICCRSRPSAKASWVHQ", "modifications": "mutant of rat sequence deletion mutant removes Gln218-Ala392, inclusive, of SEQ ID NO9"}, "B5": {"name": "C-terminal truncation Q453: NARC1 terminating at residue Q453; most of the CRR removed (protein)", "chain": "MGIRCSTWLRWPLSPQLLLLLLLCPTGSRAQDEDGDYEELMLALPSQEDSLVDEASHVATATFRRCSKEAWRLPGTYVVVLMEETQRLQVEQTAHRLQTWAARRGYVIKVLHVFYDLFPGFLVKMSSDLLGLALKLPHVEYIEEDSLVFAQSIPWNLERIIPAWQQTEEDSSPDGSSQVEVYLLDTSIQSGHREIEGRVTITDFNSVPEEDGTRFHRQASKCDSHGTHLAGVVSGRDAGVAKGTSLHSLRVLNCQGKGTVSGTLIGLEFIRKSQLIQPSGPLVVLLPLAGGYSRILNTACQRLARTGVVLVAAAGNFRDDACLYSPASAPEVITVGATNAQDQPVTLGTLGTNFGRCVDLFAPGKDIIGASSDCSTCYMSQSGTSQAAAHVAGIVAMMLNRDPALTLAELRQRLILFSTKDVINMAWFPEDQRVLTPNRVATLPPSTQETGGQ", "modifications": "mutant of rat sequence truncated sequence ends at amino acid Gln453"}, "B6": {"name": "C-terminal truncation V507: NARC1 terminating at residue V507; much of the CRR removed (protein)", "chain": "MGIRCSTWLRWPLSPQLLLLLLLCPTGSRAQDEDGDYEELMLALPSQEDSLVDEASHVATATFRRCSKEAWRLPGTYVVVLMEETQRLQVEQTAHRLQTWAARRGYVIKVLHVFYDLFPGFLVKMSSDLLGLALKLPHVEYIEEDSLVFAQSIPWNLERIIPAWQQTEEDSSPDGSSQVEVYLLDTSIQSGHREIEGRVTITDFNSVPEEDGTRFHRQASKCDSHGTHLAGVVSGRDAGVAKGTSLHSLRVLNCQGKGTVSGTLIGLEFIRKSQLIQPSGPLVVLLPLAGGYSRILNTACQRLARTGVVLVAAAGNFRDDACLYSPASAPEVITVGATNAQDQPVTLGTLGTNFGRCVDLFAPGKDIIGASSDCSTCYMSQSGTSQAAAHVAGIVAMMLNRDPALTLAELRQRLILFSTKDVINMAWFPEDQRVLTPNRVATLPPSTQETGGQLLCRTVWSAHSGPTRTATATARCAPEEELLSCSSFSRSGRRRGDRIEAIGGQQV", "modifications": "mutant of rat sequence truncated mutant ends at amino acid Val507", "notes": "NARC1 terminating at residue V507; much of the CRR removed"}}, "key": {"[1]": {"test_system": "NARC1 transfectants", "description": "Following transient expression of this construct in CGNs, the percentage of GFP positive and GFP negative cells undergoing apoptosis was determined by Laser-Scanning Cytometry.\nFollowing transient expression of the wild-type and point-mutant NARC1 constructs in CGNs, the percentage of GFP-positive cells undergoing apoptosis was determined by Laser-Scanning Cytometry.\nThe serine protease inhibitors Aminoethyl-benzene sulfonyl fluoride, an irreversible inhibitor (AEBSF), Aprotinin, a reversible inhibitor, and N-Tosyl-lysine-chloromethylketone (TLCK, an inhibitor known to covalently bind to serine proteases) were investigated to see if any of these reagents can rescue the cell death effects of wild-type NARC1. Caspase 9 transfection was included to test for specificity of any rescue effects.\nCGNs were transfected with each of the C-terminal truncation mutants described above. Following transient expression of these constructs, the percentage of GFP positive cells undergoing apoptosis was determined by Laser-Scanning Cytometry."}, "[2]": {"test_system": "NARC1", "experiment": "Autoprocessing of NARC1 transiently expressed in COS-7 cells, Western blotting", "type": "cell-based, rat", "conditions": "C-terminal myc/His fusion transiently expressed in COS-7 cells, 60 kD processing product on Western blot", "description": "The wild-type NARC1-myc/His clone was transiently expressed in COS-7 cells. The cells were then harvested, lysed, and the protein extracted. Polyacrylamide gel electrophoresis was then carried out on the protein extracts, followed by Western blotting. The resulting membranes were probed using both anti-myc- and NARC1-specific antibodies. Routine techniques and protocols were followed. See, e.g., Ausubel et al.(1998), supra.\nThis cleavage event maps to approximately the junction between the pro-domain and the enzymatic domain.\nAutoprocessing of NARC1 was investigated as follows. COS-7 cells were co-transfected with the following EGFP and myc plasmids: (A) wild-type NARC1-myc and wild-type NARC1-EGFP; (B) S385A NARC1-myc and S385A NARC1-EGFP; and (C) wild-type NARC1-myc and S385A NARC1-myc. The cells were then harvested, lysed, and the protein extracted. Polyacrylamide gel electrophoresis was then carried out on the protein extracts, followed by Western blotting. The resulting membranes were sequentially probed using first the anti-myc and then the anti-EGFP monoclonal antibodies (Abs). Thus, the experiment allowed sequential detection of the separate NARC1 products encoded from the two co-transfected plasmids.\nAs indicated above, a series of C-terminal truncation mutants were generated. The truncation NARC1-myc/His clones were transiently expressed in COS-7 cells. The cells were then harvested, lysed, the protein extracted, and polyacrylamide gel electrophoresis carried out on the protein extracts. Western analysis was then carried out using both anti-myc and NARC1-specific antibodies."}, "[3]": {"test_system": "cerebellar granule neurons (CGNs)", "experiment": "Apoptosis after transient expression of NARC1-EGFP constructs in CGNs, Laser-Scanning Cytometry", "type": "cell-based, rat", "conditions": "for Resulting Cell Death Activity: EGFP construct transiently expressed in CGNs, percentage of GFP-positive cells undergoing apoptosis; for BAF sensitivity of induced cell death: CGNs, 100 μM BAF", "text": "Cerebellar granule neurons (CGNs) were transfected with a NARC1-enhanced green fluorescent protein (EGFP) expression construct (with the EGFP sequences located at the carboxy terminus of the fusion protein). Unless otherwise indicated, the construct utilized in the following experiments contained 2073 base pairs of the rat NARC1 transcript set forth in FIG. 5. Specifically, this corresponds to nucleotides 205-2277 and amino acid residues 56-746 of SEQ ID NO:4 and SEQ ID NO:3, respectively. The polypeptide sequence encoded by the NARC1 insert utilized herein has been set forth as SEQ ID NO:9 herein. The nucleotide sequence of this insert has been set forth as SEQ ID NO:10.\nTo investigate NARC1-mediated neuronal cell death, transient expression of the EGFP clones was carried out in cerebellar granule neurons (CGNs). These studies are set forth in detail as follows."}}, "note": "“Also recorded” adds a separate entry of the source. Where two headings read alike, the source gives them in different places.", "data": [{"molecule": "Aprotinin", "values": [{"measurement": "Rescue of cell death in NARC1 transfectants", "setting": "[1]; 24-hour exposure", "value": "some suggestion of rescue"}, {"measurement": "Rescue of cell death in NARC1 transfectants", "setting": "[1]; 48-hour exposure", "value": "increased effectiveness"}]}, {"molecule": "B1", "values": [{"measurement": "Autoprocessing Activity", "setting": "[2]", "value": "reduces autoprocessing; also recorded: Reduced processing"}, {"measurement": "Resulting Cell Death Activity", "setting": "[3]", "value": "essentially a wild-type phenotype; also recorded: no effect on the cell death phenotype"}]}, {"molecule": "B2", "values": [{"measurement": "Autoprocessing Activity", "setting": "[2]", "value": "Absence of processing."}, {"measurement": "Resulting Cell Death Activity", "setting": "[3]", "value": "Reduced activity."}]}, {"molecule": "B3", "values": [{"measurement": "Autoprocessing Activity", "setting": "[2]", "value": "Normal processing."}, {"measurement": "BAF sensitivity of induced cell death", "setting": "[3]", "value": "insensitive."}, {"measurement": "Resulting Cell Death Activity", "setting": "[3]", "value": "Induces wild type"}]}, {"molecule": "B4", "values": [{"measurement": "Autoprocessing Activity", "setting": "[2]", "value": "Absence of processing."}, {"measurement": "Resulting Cell Death Activity", "setting": "[3]", "value": "Reduced activity."}]}, {"molecule": "B5", "values": [{"measurement": "Autoprocessing Activity", "setting": "[2]", "value": "Normal processing."}, {"measurement": "BAF sensitivity of induced cell death", "setting": "[3]", "value": "insensitive."}, {"measurement": "Resulting Cell Death Activity", "setting": "[3]", "value": "Induces wild type"}]}, {"molecule": "B6", "values": [{"measurement": "Autoprocessing Activity", "setting": "[2]", "value": "Marked increase in"}, {"measurement": "Autoprocessing Activity", "setting": "[2]; listed as V507 C-terminal truncation mutant", "value": "markedly increased level of autoprocessing"}, {"measurement": "Autoprocessing Activity", "setting": "[2]; listed as V507 truncation", "value": "increased rate of processing"}, {"measurement": "BAF sensitivity of induced cell death", "setting": "[3]", "value": "insensitive."}, {"measurement": "Resulting Cell Death Activity", "setting": "[3]", "value": "Induces wild type"}]}]}
